We go through nine molecules from patent US20200399381A1 (I MAB BIOPHARMA US, published 2020).

Residue numbers refer to the chain shown, from its start.

The target of experiment [1] is T1, human IFNAR-1 protein (form not stated) (human, UniProt P17181 28-436, limits assumed).
T1 construct: bispecific ELISA
T1 sequence (looked up): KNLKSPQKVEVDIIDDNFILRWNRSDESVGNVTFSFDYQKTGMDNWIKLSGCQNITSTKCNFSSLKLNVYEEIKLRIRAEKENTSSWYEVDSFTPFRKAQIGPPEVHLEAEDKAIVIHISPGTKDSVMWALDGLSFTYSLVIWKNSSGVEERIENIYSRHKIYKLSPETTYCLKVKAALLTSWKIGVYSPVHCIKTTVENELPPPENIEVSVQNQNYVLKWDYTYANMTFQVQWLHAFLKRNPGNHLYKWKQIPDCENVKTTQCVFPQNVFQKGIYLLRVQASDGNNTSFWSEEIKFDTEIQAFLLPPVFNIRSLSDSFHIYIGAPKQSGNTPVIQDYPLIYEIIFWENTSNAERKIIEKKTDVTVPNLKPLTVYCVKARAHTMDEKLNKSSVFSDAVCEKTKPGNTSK
The experiment is described as follows: affinity ranking of expressed humanized 8G11 IgGs (method not named).

Experiment [2] deals with T1, human IFNAR-1 protein (form not stated). Put plainly: affinity measurement of purified IgG at different concentrations (method not named).
Experiment [3] deals with T2, recombinant His-tagged human IFNAR-1-ECD protein (human, UniProt P17181 28-436).
T2 construct: extracellular domain; the Biacore text says His-tagged human IFNAR-1-ECD; also called His-tagged IFNAR-1; hIFNAR-1 protein; not shown: His tag
T2 sequence (looked up): T1 sequence (looked up)
The experiment is described as follows: ELISA, coated His-tagged IFNAR-1. The protocol:
This example tested the binding properties of the anti-IFNAR-1 mouse antibodies to the human IFNAR-1 proteins by ELISA assay. In short, His-tagged IFNAR-1 was coated at 0.5 μg/ml overnight and then blocked by 5% BSA in PBS. Serial diluted anti-IFNAR-1 antibodies were incubated with the coated antigen for 1 h at room temperature. The resulting plates were washed with PBS/T and incubated with goat anti-mouse IgG-HRP for 1 h at room temperature. The plates were developed with TMB substrate and analyzed by spectrophotometer at OD 450-630 nm.

The target in experiment [4] is T3, human IFNAR-1 on cells (human, UniProt P17181 28-557).
T3 sequence (looked up): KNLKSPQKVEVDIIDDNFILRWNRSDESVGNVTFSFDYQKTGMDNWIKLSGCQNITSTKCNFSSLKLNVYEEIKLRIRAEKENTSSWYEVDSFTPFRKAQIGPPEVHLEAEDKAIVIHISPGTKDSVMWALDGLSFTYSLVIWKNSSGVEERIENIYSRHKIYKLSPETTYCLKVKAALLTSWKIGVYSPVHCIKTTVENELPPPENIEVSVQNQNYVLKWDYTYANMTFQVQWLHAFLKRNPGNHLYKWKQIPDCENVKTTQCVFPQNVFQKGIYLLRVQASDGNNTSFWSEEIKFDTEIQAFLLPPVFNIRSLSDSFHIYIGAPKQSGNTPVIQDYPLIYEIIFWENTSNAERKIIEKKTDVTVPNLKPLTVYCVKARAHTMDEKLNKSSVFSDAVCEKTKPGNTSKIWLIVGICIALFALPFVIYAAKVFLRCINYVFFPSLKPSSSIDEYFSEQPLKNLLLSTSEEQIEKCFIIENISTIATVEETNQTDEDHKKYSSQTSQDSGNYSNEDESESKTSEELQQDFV
The experiment is described as follows: cell-based or functional assay.

The target in experiment [5] is T2, recombinant His-tagged human …. Put plainly: SPR (Biacore T200), antibody captured, His-tagged IFNAR-1-ECD as analyte. The protocol: The binding of the antibodies to recombinant His-tagged human IFNAR-1-ECD protein was examined by Biacore T200 using a capture method. The anti-IFNAR-1 antibodies were captured using anti-human Fc antibody or Protein A which were coated on chip. The serial concentrations of his-tagged human IFNAR-1-ECD protein (0-8 nM) were injected over capture antibodies at the flow rate of 30 μl/min. The dissociation phases were 600 s or 1200 s.
In general terms: Surface plasmon resonance follows binding to a sensor surface in real time, without labels.

Experiment [6] concerns the target T3, human IFNAR-1 on cells. Put plainly: cell-based or functional assay. The source holds these as a separate data set.
The target in experiment [7] is T1, human IFNAR-1 protein (form not stated). Put plainly: affinity measurement of purified IgG at different concentrations (method not named). This is another data set of the same source.
The target is the same in experiment [8]. Put plainly: affinity ranking of expressed humanized 485G10 IgGs (method not named).

B1: 8G11-H2L1 (antibody, V domains shown)
VH: QVQLVQSGAEVVKPGASVKVSCKGSGFNIKDYYMHWVRQAPGQGLEWIGRIDPEDAETKYAPKFQGRVTMTADTSTSTVYMELSSLRSEDTAVYYCARGGNFYVMDYWGQGTLVTVSS
VL: DIQLTQSPSFLSASVGDRVTITCKASQNVGTNVVWYQQKPGKAPKLLIYSASYRVSGVPSRFSGSGSGTEFTLTISSLQPEDFATYYCQQKNNYPYTFGQGTKLEIK
notes: Humanized IgG expressed in HEK293; also called VH2 + VL1 (8G11)
In experiment [1], B1 gave a Kd of 439 pM, an off-rate (koff) of 8.84e-05 s⁻¹ and an on-rate (kon) of 202000 M⁻¹ s⁻¹. In experiment [2], this molecule gave a Kd of 403 pM, a koff of 9.24e-05 s⁻¹ and a kon of 229000 M⁻¹ s⁻¹.

B2: 8G11-H1L1 (antibody, V domains shown)
VH: B1 VH with V12K, G24A, I48M, A72R
VL: B1 VL
notes: Humanized IgG expressed in HEK293; also called VH1 + VL1 (8G11)
In experiment [1], B2 had a Kd of 662 pM, a koff of 9.83e-05 s⁻¹ and a kon of 148000 M⁻¹ s⁻¹. In experiment [2], this molecule had a Kd of 1360 pM, an off-rate (koff) of 0.000219 s⁻¹ and an association rate constant (kon) of 161000 M⁻¹ s⁻¹.

B3: 8G11-H2L2 (antibody, V domains shown)
VH: B1 VH
VL: B1 VL with A13T, A43S, L46V, T74I
notes: Humanized IgG expressed in HEK293; also called VH2 + VL2 (8G11)
Consider B3, for which, in experiment [1], the Kd was determined as 328 pM, the dissociation rate constant (koff) stood at 9.42e-05 s⁻¹ and the kon was found to be 287000 M⁻¹ s⁻¹. Moreover, in experiment [2], the dissociation constant (Kd) was 419 pM, the koff stood at 0.000125 s⁻¹ and the kon came to 298000 M⁻¹ s⁻¹.

B4: 8G11-H4L3 (antibody, V domains shown)
VH: B1 VH with V20L, R38K, V68A, M70I, V79A, M81L
VL: B1 VL with A13T, A43S, L46V, T74I, L78V, Y87F
notes: Humanized IgG expressed in HEK293; also called VH4 + VL3 (8G11)
In experiment [1], B4 registered a dissociation constant (Kd) of 284 pM, an off-rate (koff) of 8.52e-05 s⁻¹ and an on-rate constant (kon) of 301000 M⁻¹ s⁻¹. In experiment [2], this molecule showed a Kd of 220 pM, a koff of 7.47e-05 s⁻¹ and a kon of 340000 M⁻¹ s⁻¹.

B5: 4D8 (antibody, V domains shown)
VH: EVRLQQSGAELVQPGASVKLSCTGFGFNIKDYYMHWVKQRTEQGLEWIGRIDPEDAETKYAPKFQGQATITADTSSNTAYVQVSSLSSEDTAVYYCARGGNFYVMDYWGQGTSVTVSS
VL: DIVMTQSQKFMSTSVGDRVSVTCKASQNVGTNVVWYQQKPGQSPKVLIYSASYRYSGVPDRFTGSGSGTDFTLIISNVQSEDLAEYFCQQKNSYPYTFGGGTKLEIK
notes: Hybridoma-derived monoclonal antibody; Chimeric human IgG1 Fc versions were also made
On to B5, for which the half-maximal effective concentration (EC50) in experiment [3] is 67 pM. Besides, the “EC50 (nM), inhibition of IFNα2b-induced SEAP reporter in HEK-Blue IFNα/β cells” value (“EC50 (nM), inhibition” below) with human IFNAR-1 on cells [4] turned out to be 0.46 nM. Further, in experiment [5], the equilibrium dissociation constant (Kd) amounted to 39 pM, the koff was found to be 9.03e-05 s⁻¹ and the on-rate constant (kon) was found to be 2.31e+06 M⁻¹ s⁻¹.

B6: 34H8 (antibody, V domains shown)
VH: EVQLLQSGAELVKPGASVRLSCTASGFNIKDYYLHWVKQRTEQGLEWIGRIDPEDGETKYAPKFQGKATITTDTSSNTAYLQLSSLTSEDTAVYYCTRGGNYDVMDYWGQGTSVTVSS
VL: B5 VL with N32Y, V46A, I74T, S76G, S93T, Y96F, K107E
notes: Hybridoma-derived monoclonal antibody
For B6, the EC50 in experiment [3] was determined as 64 pM. In addition, in the experiment with human IFNAR-1 on cells [4], the “EC50 (nM), inhibition” value amounted to 0.56 nM. In addition, in experiment [5], the Kd stood at 18.6 pM, the koff was 4.41e-05 s⁻¹ and the association rate constant (kon) is 2.37e+06 M⁻¹ s⁻¹.

B7: 485G10 chimeric antibody (antibody, V domains shown)
VH: EVQLQQSGAELVKPGASVKLSCTGSGFNIKDYYIHWVKQRTEQGLEWIGRIDPEDGETKYAPKFQGKATITADTSSNTAYLQLSSLTSEDTVVYYCGRYHGYWALDYWGQGTSVTVSS
VL: B5 VL with A25T, V34A, V46P, A51T, Q89H, K91Y, N92F, K103L
Turning to B7, in the experiment with human IFNAR-1 on cells [6], the “EC50 (nM), IFNα2b-mediated anti-viral assay (Huh7-Con1b HCV replicon luciferase)” value turned out to be 16.3 nM.

B8: 8G11 (antibody, V domains shown)
VH: B5 VH with R3Q, Q13K, T41A, A56G, Q67K, V81L, S87T
VL: B5 VL with Y55V, S93N
notes: Hybridoma-derived monoclonal antibody; also called mouse antibody 8G11
On to B8, for which the concentration giving a half-maximal response (EC50) in experiment [3] worked out at 69 pM. The “EC50 (nM), inhibition” value with human IFNAR-1 on cells [4] was 0.465 nM. Further, in experiment [5], the equilibrium dissociation constant (Kd) worked out at 27.1 pM, the koff amounted to 6.4e-05 s⁻¹ and the kon came out at 2.36e+06 M⁻¹ s⁻¹.

B9: 485G10-H2L3 (antibody, V domains shown)
VH: QVQLVQSGAEVKKPGASVKLSCKASGFNIKDYYIHWVKQAPGQGLEWIGRIDPEDAETKYAPKFQGRVTMTADTSISTAYMELSRLRSDDTVVYYCGRYHGYWALDYWGQGTLVTVSS
VL: DIQMTQSPSSLSTSVGDRVTITCKTSQNVGTNVAWYQQKPGKAPKPLIYSTSYRYSGVPSRFSGSGSGTDFTLTISSVQPEDFATYYCHQYFSYPYTFGPGTKLDIK
notes: Humanized IgG expressed in HEK293; also called VH2 + VL3 (485G10)
In experiment [7], B9 gave a dissociation constant Kd of 1960 pM, a koff of 0.000366 s⁻¹ and an association rate constant (kon) of 186000 M⁻¹ s⁻¹. In experiment [8], the Kd stood at 848 pM, the dissociation rate constant (koff) turned out to be 0.000238 s⁻¹ and the kon worked out at 281000 M⁻¹ s⁻¹.

A word on the Kd: it is the free concentration of one partner at which half of the binding sites on the other are occupied at equilibrium, for simple one-to-one binding. What is called koff is a measure of how fast the partners let go of each other. As usually defined, the kon is a measure of how fast the partners come together. The term EC50 denotes the concentration needed to bring the measured effect to its halfway point.
